Assay results taken from patent publication US20190352420A1 (Boehringer Ingelheim, published 2019).
Changes are numbered by the printed parent chain. Where two headings read alike, the source gives them in different places.

T1: cell-bound CD73 (human, UniProt P21589 27-549)
T1 sequence (looked up): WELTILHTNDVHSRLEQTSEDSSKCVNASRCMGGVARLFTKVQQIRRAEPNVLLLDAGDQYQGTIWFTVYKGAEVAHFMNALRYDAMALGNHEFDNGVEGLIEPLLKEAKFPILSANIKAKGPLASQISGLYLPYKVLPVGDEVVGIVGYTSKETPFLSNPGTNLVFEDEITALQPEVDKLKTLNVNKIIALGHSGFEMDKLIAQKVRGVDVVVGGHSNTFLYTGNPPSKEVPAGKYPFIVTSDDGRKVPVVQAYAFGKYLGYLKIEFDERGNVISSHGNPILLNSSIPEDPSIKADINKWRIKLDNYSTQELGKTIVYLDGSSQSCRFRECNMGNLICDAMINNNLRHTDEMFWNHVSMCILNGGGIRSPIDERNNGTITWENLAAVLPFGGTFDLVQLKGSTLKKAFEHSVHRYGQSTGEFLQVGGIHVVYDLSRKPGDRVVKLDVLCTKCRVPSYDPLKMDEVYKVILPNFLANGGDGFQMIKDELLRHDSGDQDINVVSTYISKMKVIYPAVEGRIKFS

T2: non-cell-bound CD73 (human, UniProt P21589 27-549, limits assumed)
T2 sequence (looked up): T1 sequence (looked up)

T3: recombinant human CD73 protein (human, UniProt P21589 27-549, limits assumed)
T3 sequence (looked up): T1 sequence (looked up)

T4: human CD73-His (human, UniProt P21589 27-549)
T4 construct: extracellular domain; The SPR analyte is only called 'human CD73-His' (non-covalent dimeric antigen); also called HuCD73 His tagged; HuCD73his20170303
T4 sequence: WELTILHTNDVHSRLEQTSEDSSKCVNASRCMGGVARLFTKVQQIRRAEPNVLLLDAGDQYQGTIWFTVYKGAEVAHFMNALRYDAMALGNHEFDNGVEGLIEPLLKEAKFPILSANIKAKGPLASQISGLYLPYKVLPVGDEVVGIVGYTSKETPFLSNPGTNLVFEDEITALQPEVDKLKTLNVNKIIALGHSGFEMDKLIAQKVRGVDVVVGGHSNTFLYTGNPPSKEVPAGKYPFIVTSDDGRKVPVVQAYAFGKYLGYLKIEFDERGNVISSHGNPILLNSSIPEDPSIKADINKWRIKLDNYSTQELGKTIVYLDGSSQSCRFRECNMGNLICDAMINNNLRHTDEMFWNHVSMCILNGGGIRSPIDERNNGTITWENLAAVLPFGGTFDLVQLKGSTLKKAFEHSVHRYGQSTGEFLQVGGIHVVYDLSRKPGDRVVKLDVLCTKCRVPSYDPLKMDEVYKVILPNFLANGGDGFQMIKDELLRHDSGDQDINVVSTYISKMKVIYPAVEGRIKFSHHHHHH

T5: mouse CD73 (mouse, UniProt Q61503 29-551, limits assumed)
T5 construct: also called murine CD73
T5 sequence (looked up): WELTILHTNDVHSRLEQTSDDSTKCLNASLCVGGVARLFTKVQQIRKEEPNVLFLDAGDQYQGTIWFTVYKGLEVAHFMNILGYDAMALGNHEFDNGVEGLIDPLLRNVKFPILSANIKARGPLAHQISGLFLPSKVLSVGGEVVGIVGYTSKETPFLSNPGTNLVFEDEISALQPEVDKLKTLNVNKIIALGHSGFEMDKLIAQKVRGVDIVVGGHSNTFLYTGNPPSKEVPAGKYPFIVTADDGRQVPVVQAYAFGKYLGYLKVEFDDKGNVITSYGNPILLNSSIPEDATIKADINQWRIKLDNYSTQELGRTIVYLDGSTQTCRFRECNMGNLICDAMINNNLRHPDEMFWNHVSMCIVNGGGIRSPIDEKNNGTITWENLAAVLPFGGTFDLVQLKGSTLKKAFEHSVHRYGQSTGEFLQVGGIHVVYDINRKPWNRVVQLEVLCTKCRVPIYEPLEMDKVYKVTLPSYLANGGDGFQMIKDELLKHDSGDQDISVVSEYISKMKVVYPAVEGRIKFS

B1: B2 (antibody, human IgG1, kappa, L234A L235A, V domains shown)
VH: EVQLVESGGGLVQPGGSLRLSCAASGLTFSSYVMSWVRQAPGKGLEWVSTISSGGVSTYYPDTVKGRFTISRDNSKNTLYLQMNSLRAEDTAVYYCAKRETARATGFAYWGQGTLVTVSA
VL: DIQMTQSPSSLSASVGDRVTITCKASQSVSDDVTWYQQKPGKAPKLLIYYASNRYTGVPSRFSGSGSGTDFTFTISSVQPEDIATYYCQQDYSSPWTFGGGTKLEIKR
notes: Humanized monoclonal antibody; also called anti-CD73 antibody B2
B2: C2 (antibody, human IgG1, kappa, L234A L235A, V domains shown)
VH: QVQLVQSGAEVKKPGDSVKVSCKASGYTFTTYWMHWVRQAPGQGLEWMGAIYPGLSDTTYSQKFKGKVTMTRDTSTSTVYMKLSSLRSEDTAVYYCARLLDYAMDYWGQGTLVTVSS
VL: DIQMTQSPSSLSASVGDRVTITCRASQDIRSYLNWHQQKPGKAPKLLIWYTSRLHSGVPSRFSGSGSGTDYTLTISSLEPEDFATYFCQQGETLPWTFGQGTKLEIKR
notes: Humanized monoclonal antibody; also called anti-CD73 antibody C2
B3: C1 (antibody, human IgG1, kappa, L234A L235A, V domains shown)
VH: B2 VH with L55F
VL: B2 VL
notes: Humanized monoclonal antibody; also called anti-CD73 antibody C1

Tests used:
cell-bound CD73 [1] = molecular target: T1, cell-bound CD73; assay: cell-based or functional assay
non-cell-bound CD73 = molecular target: T2, non-cell-bound CD73; assay: cell-based or functional assay
[2] = molecular target: T3, recombinant human CD73 protein; assay: cell-based or functional assay
cell-bound CD73 [3] = molecular target: T1, cell-bound CD73; assay: cell-based or functional assay; remark: listed apart in the source
cell-bound CD73 [4] = molecular target: T1, cell-bound CD73; assay: cell-based or functional assay; remark: listed apart in the source
cell-bound CD73 [5] = molecular target: T1, cell-bound CD73; assay: cell-based or functional assay; remark: listed apart in the source
cell-bound CD73 [6] = molecular target: T1, cell-bound CD73; assay: cell-based or functional assay; remark: listed apart in the source
cell-bound CD73 [7] = molecular target: T1, cell-bound CD73; assay: cell-based or functional assay; remark: listed apart in the source
human CD73-His = molecular target: T4, human CD73-His; assay: SPR (ProteOn XPR36), antibody captured on Protein A/G, dimeric human CD73-His as analyte, avidity format, 1:1 Langmuir fit
Description: For the avidity format, the experiment was performed on a Bio-Rad ProteOn XPR36 instrument. Antibodies were captured via Protein A/G and the non-covalent dimeric antigens were flowed over the captured surface. The running buffer for this experiment and all dilutions were prepared in PBS-T-EDTA. The GLM sensor chip was normalized and pre-conditioned as per the manufacturer's recommendations. The sensor chip was activated with an equal mixture of EDC/s-NHS in the horizontal direction for 300 s at a flow rate of 30 μL/min and immobilized with recombinant Protein A/G (50 μg/ml in 10 mM acetate pH 4.5) in the horizontal direction for 300 s at a flow rate of 30 μL/min resulting in about 5000 RU of Protein A/G on the surface. The sensor chip was deactivated with 1M ethanolamine-HCl in the horizontal direction for 300 s at a flow rate of 30 μL/min. The sensor chip was regenerated with 18 s of 0.85% phosphoric acid at a flow rate of 100 μL/min 2 times horizontally and 2 times vertically.
About 300 RU of antibody was captured on the Protein A/G surface vertically for 60 s at a flow rate of 30 μL/min. The capture surface was stabilized by injecting PBS-T-EDTA for 60 s at a flowrate of 100 μL/min horizontally. The analyte (human CD73-His) was injected horizontally over the captured antibody for 600 s at a flow rate of 30 μL/min with a dissociation of 1200 s. The concentrations of human CD73-His were 0 nM, 3.125 nM, 6.25 nM, 12.5 nM, 25 nM and 50 nM. The surface was regenerated by injecting 0.85% phosphoric acid for 18 s at a flow rate of 100 μL/min one time horizontally and one time vertically.
The interspot (interactions with sensor surface) and blank (PBS-T-EDTA or 0 nM analyte) were subtracted from the raw data.

mouse CD73 = molecular target: T5, mouse CD73; assay: SPR, mouse CD73 compared with human CD73 (reference)

Row | Molecule | % of max. adenosine inhibition, washed Colo-201 cells (cell-bound CD73 [1]) [%] | CD8 T cell proliferation [% of control], Donor A, 1 nM antibody (cell-bound CD73 [1]) [%] | CD8 T cell proliferation [% of control], Donor B, 1 nM antibody (cell-bound CD73 [1]) [%] | CD8 T cell proliferation [% of control], Donor C, 1 nM antibody (cell-bound CD73 [1]) [%] | CD8 T cell proliferation [% of control], Donor D, 1 nM antibody (cell-bound CD73 [1]) [%] | CD8 T cell proliferation [% of control], Donor E, 1 nM antibody (cell-bound CD73 [1]) [%] | CD8 T cell proliferation [% of control], Donor F, 1 nM antibody (cell-bound CD73 [1]) [%] | CD73 surface reduction [%] on Colo201 cells, 24 h, flow cytometry (cell-bound CD73 [1]) [%] | IFNγ release [fold change over control], Donor A, 1 nM antibody (cell-bound CD73 [1]) [fold] | IFNγ release [fold change over control], Donor B, 1 nM antibody (cell-bound CD73 [1]) [fold] | % of max. adenosine inhibition, Colo-201 culture supernatant (non-cell-bound CD73) [%] | IC90 of inhibition of CD73 enzymatic function (luciferase-based assay) [2] [pM] | CD73 surface reduction [%] on Colo201 cells, 24 h, flow cytometry (cell-bound CD73 [3]) [%] | Max. adenosine inhibition [%] in Colo201 cells (cell-bound CD73 [4]) [%] | CD8 T cell proliferation [% of control], Donor A, 1 nM antibody (cell-bound CD73 [5]) [%] | CD8 T cell proliferation [% of control], Donor B, 1 nM antibody (cell-bound CD73 [5]) [%] | IFNγ release [fold change over control], Donor A, 1 nM antibody (cell-bound CD73 [6]) [fold] | IFNγ release [fold change over control], Donor B, 1 nM antibody (cell-bound CD73 [6]) [fold] | % of max. adenosine inhibition, washed Colo-201 cells (cell-bound CD73 [7]) [%] | Kd (human CD73-His) [pM] | other results
1 | "MEDI9447" (antibody) | 62 | 43.9 | 46.7 | 115 | 98 | 85.5 | -34.1 | 17 | 7.7 | 5.3 | 56 |  |  |  |  |  |  |  |  |  | IFNγ release [fold change over control], Donor C, 1 nM antibody (cell-bound CD73 [1]): 16.2 fold; IFNγ release [fold change over control], Donor D, 1 nM antibody (cell-bound CD73 [1]): 20.7 fold; IFNγ release [fold change over control], Donor E, 1 nM antibody (cell-bound CD73 [1]): 5 fold; IFNγ release [fold change over control], Donor F, 1 nM antibody (cell-bound CD73 [1]): 1.1 fold; Max. adenosine inhibition [%] in Colo201 cells (cell-bound CD73 [1]): 63%
2 | "BMS986179" (antibody) | 84 | 40.7 | 61.7 | 99.6 | 98.7 | 95.4 | 22.5 | 58 | 10.9 | 5.2 | 63 |  |  |  |  |  |  |  |  |  | IFNγ release [fold change over control], Donor C, 1 nM antibody (cell-bound CD73 [1]): 36.4 fold; IFNγ release [fold change over control], Donor D, 1 nM antibody (cell-bound CD73 [1]): 13.3 fold; IFNγ release [fold change over control], Donor E, 1 nM antibody (cell-bound CD73 [1]): 7.2 fold; IFNγ release [fold change over control], Donor F, 1 nM antibody (cell-bound CD73 [1]): 2.9 fold; Max. adenosine inhibition [%] in Colo201 cells (cell-bound CD73 [1]): 68%
3 | B1 |  |  |  |  |  |  |  |  |  |  | 62 | 1040 | 31 | 77 | 55.6 | 62.2 | 12.6 | 8.1 | 70 | 420 | CD8 T cell proliferation [% of control], Donor C, 1 nM antibody (cell-bound CD73 [5]): 95.8%; CD8 T cell proliferation [% of control], Donor D, 1 nM antibody (cell-bound CD73 [5]): 98.5%; CD8 T cell proliferation [% of control], Donor E, 1 nM antibody (cell-bound CD73 [5]): 99.1%; CD8 T cell proliferation [% of control], Donor F, 1 nM antibody (cell-bound CD73 [5]): -8.9%; IFNγ release [fold change over control], Donor C, 1 nM antibody (cell-bound CD73 [6]): 34.1 fold; IFNγ release [fold change over control], Donor D, 1 nM antibody (cell-bound CD73 [6]): 17.7 fold; IFNγ release [fold change over control], Donor E, 1 nM antibody (cell-bound CD73 [6]): 11.1 fold; IFNγ release [fold change over control], Donor F, 1 nM antibody (cell-bound CD73 [6]): 3.1 fold
4 | B2 |  |  |  |  |  |  |  |  |  |  | 77 | 490 | 15 | 88 | 103 | 68.5 | 20.3 | 7.8 | 78 | 63 | fold higher binding to human CD73 than to mouse CD73 (mouse CD73): 138 fold
5 | B3 |  |  |  |  |  |  |  |  |  |  | 76 | 490 | 20 | 86 | 104 | 86.7 | 20.9 | 12 | 79 | 72 | CD8 T cell proliferation [% of control], Donor C, 1 nM antibody (cell-bound CD73 [5]): 107%; CD8 T cell proliferation [% of control], Donor D, 1 nM antibody (cell-bound CD73 [5]): 99.5%; CD8 T cell proliferation [% of control], Donor E, 1 nM antibody (cell-bound CD73 [5]): 101%; CD8 T cell proliferation [% of control], Donor F, 1 nM antibody (cell-bound CD73 [5]): 84.2%; IFNγ release [fold change over control], Donor C, 1 nM antibody (cell-bound CD73 [6]): 51.3 fold; IFNγ release [fold change over control], Donor D, 1 nM antibody (cell-bound CD73 [6]): 20.9 fold; IFNγ release [fold change over control], Donor E, 1 nM antibody (cell-bound CD73 [6]): 12.8 fold; IFNγ release [fold change over control], Donor F, 1 nM antibody (cell-bound CD73 [6]): 6.7 fold; fold higher binding to human CD73 than to mouse CD73 (mouse CD73): 96 fold
